Results from patent publication US11707511B2, “Vaccine compositions and methods of using the same” (The Board of Supervisors of Louisiana State University and …, priority 2017, dated 2023).

System: C. albicans 3153A
Assay: Passive transfer of mAbs or mAb cocktails i.p. before lethal i.v. challenge, mouse model of human disseminated candidiasis
Assay type: in vivo, Candida albicans
Settings: for Protection against C. albicans / Protection against C. albicans (grade word): Table 6, single mAb 0.5 ml i.p. 4 h before i.v. 5×10^5 C. albicans 3153A, BALB/c mice; for Protection against Candida spp in mouse model: Against C. albicans / Protection against Candida spp in mouse model: Against C. albicans (grade word): Table 9; for Protection of adsorbed mAb / Protection / Protection (grade word): Table 15; for Protection of adsorbed mAb: mAb removed by absorption with Candida cells before transfer; for Protection / Protection (grade word): single universal peptide-specific mAb, C. albicans
In short: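 Female BALB/c mice aged 6–8 weeks received 0.5 ml of a single mAb, or 1 ml of a two-mAb cocktail, i.p. 4 h before i.v. lethal C. albicans 3153A challenge, five mice per group over three experiments. Some groups were redosed every other day for two weeks. Survival followed to day 50.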

B1: 1D4H5: IgG1 mAb of hybridoma 1D4H5, specific for GPV-M1; VH SEQ ID NO: 64, VL SEQ ID NO: 66 (antibody, V domains shown)
VH: MYLGLNCVFIVFLLKGVQSEVKLEESGGGLVQPGGSMKLSCVASGFTFSNYWMNWVRQSPEKGLEWVAEIRLKSNNYATHYAESVKGRFTISSDDSKSSVYLQMNNLRAEDTGIYYCSTGNYWGQGTTLTVSS
VL: MDFQMQIISLLLISVTVIVSNGEIVLTQSPTTMAASPGEKITITCSASSTISSNYLHWYQQKPGFSPKLLIYRTSNLASGVPARFSGSGSGTSYSLTIGTMEAEDVATYYCQQGSTISRTFGSGTKLEIK
  Protection against C. albicans: (70-80%)
  Protection against C. albicans (grade word): High
  Protection against Candida spp in mouse model: Against C. albicans: (70-80%)
  Protection against Candida spp in mouse model: Against C. albicans (grade word): High
  Protection of adsorbed mAb: None
  Protection: (70-80%)
  Protection (grade word): High

B2: 10E7E2: IgG1 mAb of hybridoma 10E7E2, specific for GPV-P3; VH SEQ ID NO: 72, VL SEQ ID NO: 74 (antibody, V domains shown)
VH: QVQLKQSGPGLVQPSQSLSITCTVSGFSLTSYGVHWVRQSPGKGLEWLGVIWSGGTTDYNAAFISRLSISKDNSKSQVFFKMNSLQANDTAIYYCARGGHRGFAYWGQGTLVTVSA
VL: DIVMTQSHKFMSTSVGDRVSITCKASQDVGTAVAWYQQKPGQSPKLLIYWASTRHTGVPDRFTGSGSGTDFTLTISNVQSEDLADYFCQQYSSYPLTFGAGTKLELK
  Protection against C. albicans: (80-100%)
  Protection against C. albicans (grade word): High
  Protection against Candida spp in mouse model: Against C. albicans: (80-100%
  Protection against Candida spp in mouse model: Against C. albicans (grade word): High
  Protection of adsorbed mAb: None
  Protection: (80-100%)
  Protection (grade word): High
